Results from article PMC5727402, “Structure of the large terminase from a hyperthermophilic virus reveals a unique mechanism for oligomerization and ATP hydrolysis” (Nucleic Acids Research, 2017).
“And” between values parts separate entries of the source, which are not always exact repeats. Equal values may be shown once. Values belong to the compound of their own block, whether it stands above or below them.

Tests used:
[1] = test system: Nc1ncnc2c1ncn2[C@@H]1O[C@H](COP(=O)(O)OP(=O)(O)OP(=O)(O)O)[C@@H](O)[C@H]1O; assay: purified protein; conditions: 10 mM HEPES pH 7.5, 50 mM potassium glutamate, 10 mM MgCl2, room temperature, 4.5 μM protein
[2] = target: D6E large terminase ATPase domain (1–234) (Geobacillus stearothermophilus bacteriophage D6E); assay: SEC; ATPase domain alone (Supplementary Figure S1C); conditions not shown
[3] = target: T1, full-length D6E large terminase (1–427) (synthetic construct, UniProt Z9WCS4P2M6); assay: thermal shift assay (SYPRO Orange); type: binding; conditions: 5 mM nucleotide, 5 mM MgCl2, 5 mM HEPES pH 7.5, 5 mM potassium glutamate, 5 μM protein
T1 construct: full length residues 1-427; N-terminal His6-3C tag cleaved; codon-optimized synthetic gene, E. coli BL21-Gold(DE3); monomer by SEC, monomer to pentamer by AUC, active oligomer proposed pentameric
T1 sequence (Z9WCS4P2M6 4-430): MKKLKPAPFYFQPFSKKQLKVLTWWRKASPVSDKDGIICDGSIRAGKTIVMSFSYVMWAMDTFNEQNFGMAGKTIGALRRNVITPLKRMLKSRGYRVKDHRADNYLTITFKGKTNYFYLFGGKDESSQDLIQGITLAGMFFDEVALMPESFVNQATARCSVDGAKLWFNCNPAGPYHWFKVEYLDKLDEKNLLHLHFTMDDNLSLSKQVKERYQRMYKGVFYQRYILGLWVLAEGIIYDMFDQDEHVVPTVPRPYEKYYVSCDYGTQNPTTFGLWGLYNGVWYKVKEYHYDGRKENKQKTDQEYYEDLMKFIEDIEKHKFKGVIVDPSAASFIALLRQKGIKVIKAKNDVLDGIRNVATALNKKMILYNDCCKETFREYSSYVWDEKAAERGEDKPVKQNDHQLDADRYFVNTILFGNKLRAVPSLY

Compound: C-terminally truncated protein (1–417) (synthetic construct)
- Km [1]: 196.72 ± 8.0 µM
- kcat [1]: 0.0583 ± 0.00067 s⁻¹

- stoichiometry N [2]: 4 and 5
Compound: D6E large terminase ATPase domain (1–234) (domain or fragment)

Compound: Nc1ncnc2c1ncn2[C@@H]1O[C@H](COP(=O)(O)OP(=O)(O)O)[C@@H](O)[C@H]1O [ADP]
- ΔTm [3]: 2.3 °C

Compound: Nc1ncnc2c1ncn2[C@@H]1O[C@H](COP(=O)(O)OP(=O)(O)OP(O)(O)=S)[C@@H](O)[C@H]1O [ATP-γ-S]
- ΔTm [3]: 7.8 °C
